The values below come from article doi:10.1101/2020.09.30.318261 (bioRxiv, 2020).

The target of this experiment is full-length SARS-CoV-2 spike protein, wildtype, surface expressed (SARS-CoV-2, UniProt P0DTC2). The experiment in a line: flow cytometry on cells.

B1: human monoclonal antibody 47D11 (antibody, V domains shown)
VH: QVQLQESGPGLVKPSETLSLTCSVSGGSISSHYWSWIRQPPGKGLEWIGYIYYSGSTNHNPSLKSRVTISVDTSKNQFSLKLSSVTAADTAVYYCARGVLLWFGEPIFEIWGQGTMVTVSS
VL: EIVMTQSPATLSVSPGERATLSCRASQSVSSSLAWYQQKPGQAPRLLIYGASTRAPGIPARFSGSGSGTEFTLTISSLQSEDFAVYYCQQYNNWPLTFGGGTKVEI
For B1, the binding result is recorded as “binds”.
